Columns and labels:
[1] = Perhydrolase activity of enzyme bound to hydroxyapatite discs, ABTS (Example 7); type: biochemical; conditions: for Avg Absorbance Background subtract: background = no enzyme, no HAP (0.775); for Avg Absorbance at 5 min: discs incubated in 20 μM enzyme, 6 washes, 0.346% triacetin, 3.46 mM H2O2, A405; for PAA conc μM per disc: enzyme bound to hydroxyapatite disc, 5 min, no enzyme control 1.2
Method: (§1) The detection of peracetic acid followed the method described in Pinkernell et. al. (Analyst, 1997, 122, 567) using colorimetric detection of 2,2′-azino-bis(3-ethylbenzothiazoline(-6-sulfonate (ABTS) oxidation by peracetic acid. Following the formation of peracetic acid with the addition of triacetin and hydrogen peroxide, 90 μL of solution was added to 10 μL of 0.1 M H3PO4 in a well plate. 50 μL of 1 M acetic acid, 50 μL of 0.5 g/L ABTS and 50 μL of 0.002 g/L of KI was added. The solution was allowed to develop for 5 min. The absorbance of the solution was measured at 405 nm using a microplate reader. The peracetic acid concentration was calculated based on a standard curve developed simultaneously using peracetic acid reagent solution.
The perhydrolase activity of the fusions once bound to HAP discs surfaces was determined with the same ABTS method. Hydroxyapatite discs (HiMed Inc, Old Bethpage, N.Y.; 5 mm dia.×1.8 mm thick) were incubated in 20 μM enzyme solution (50 mM potassium phosphate buffer pH 7.2) for 60 min followed by 6 times of washes (50 mM potassium phosphate buffer pH 7.2). The discs with enzyme adsorbed were transferred to new wells and 200 μL of phosphate buffer (10 mM pH 7.2), 30 μL of 3% triacetin (final concentration of 0.346%) and 30 μL of 30 mM H2O2 (final concentration of 3.46 mM) were added. The solution was allowed to incubate at room temperature for 5 min. 90 μL of solution was pipetted to a new well containing 10 μL of 100 mM H3PO4. 50 μL of acetic acid, 50 μL KI, 50 μL ABTS were added as described above. The solution was developed for 5 min at room temperature and read at A405 nm.

[2] = Perhydrolase activity in solution, ABTS detection of peracetic acid (Example 7); type: biochemical; conditions: 10 μL of 0.625 μg/mL enzyme, triacetin, H2O2, pH 7.2, 5 min
Method: as §1
The enzyme activity in solution was measured by making a solution of 0.625 μg/mL of each enzyme in 50 mM phosphate buffer, pH 7.2. 10 μL of enzyme solution was mixed with 90 μL buffer, 30 μL of 3% triacetin in water, 30 μL of 30 mM H2O2. The solution was incubated for 5 min. A 90 μL aliquot was removed for detection via ABTS oxidation as noted above.

[3] = Two-step bleaching of coffee-tea stained bovine enamel (Example 16)
Method: Bovine enamel incisors were prepared as indicated in Example 1. The stained enamel blocks were embedded in a 48 well plate to protect the dentin backside from solution exposure. A solution of 10 μM of each enzyme in 10 mM phosphate buffer, pH 7.2 was prepared and 500 μL of solution was incubated with each enamel substrate for 60 min. The enzyme solution was removed and each well was rinsed three times with an additional 500 μL of buffer. The enamel blocks were placed in a fresh well for the whitening process. A solution with a final concentration of 40 mM triacetin, 100 mM H2O2 in 50 mM phosphate pH 7.2 buffer was freshly prepared and 500 μL of solution was added to each enamel block. Over the course of 1 hr the enamel blocks were removed and a color measurement was obtained and then each was returned to the solution in the well plate. The whiteness index for each sample was monitored.

[4] = Peracetic acid generation from hydroxyapatite bound CE-7 perhydrolase fusions (Example 8); type: biochemical; conditions: hydroxyapatite particles exposed to 10 μM enzyme, washed; 100 mM triacetin, 100 mM H2O2, 30 min, 37° C.; no enzyme 30-118.8
In short: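 Enzyme (10 μM) bound to washed hydroxyapatite particles in 10 mM phosphate pH 7.2 for 30 min, washed three times, then given 100 mM triacetin plus 100 mM H2O2 in 100 mM phosphate pH 7.2, 30 min, 37 °C. Peracetic acid read by ABTS oxidation at 405 nm against standard curve; no-enzyme control.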

[5] = Peracetic acid from C277S CXH fusions exposed to hydroxyapatite discs (Example 9); conditions: no enzyme control subtracted
[6] = Peracetic acid generated in solution by CE-7 perhydrolase fusions (Example 8); type: biochemical; conditions: 0.5 μM enzyme, 100 mM triacetin, 100 mM H2O2, pH 7.2, 10 min, 37° C.; no enzyme 378.9
Method: as §1
Perhydrolase enzymes listed in Table 6 were assessed for solution activities. The method to measure the perhydrolase in solution activity was described in Example 7 by making a 500 μL solution containing 0.5 μM of enzyme, 100 mM triacetin, 100 mM H2O2 in 100 mM phosphate buffer, pH 7.2. The solution was mixed and incubated for 10 min at 37° C. A 10 μL aliquot was removed and diluted for detection as described in Example 7. Peracetic acid concentration was determined using a standard curve generated with a stock solution of peracetic acid (Aldrich). The experiment was also performed with no enzyme present as a control.

[7] = Peracetic acid generated in solution by C277S CXH fusions (Example 9); conditions: 0.5 μM enzyme, sarkosyl buffer, 100 mM triacetin, 100 mM H2O2, pH 7.2, 10 min, 37° C.

B1: EZ-1: Thermotoga maritima acetyl xylan esterase variant C277S, untargeted perhydrolase, SEQ ID NO: 424 (protein, listed as Thermotoga maritima)
chain: MAFFDLPLEELKKYRPERYEEKDFDEFWEETLAESEKFPLDPVFERMESHLKTVEAYDVTFSGYRGQRIKGWLLVPKLEEEKLPCVVQYIGYNGGRGFPHDWLFWPSMGYICFVMDTRGQGSGWLKGDTPDYPEGPVDPQYPGFMTRGILDPRTYYYRRVFTDAVRAVEAAASFPQVDQERIVIAGGSQGGGIALAVSALSKKAKALLCDVPFLCHFRRAVQLVDTHPYAEITNFLKTHRDKEEIVFRTLSYFDGVNFAARAKIPALFSVGLMDNISPPSTVFAAYNYYAGPKEIRIYPYNNHEGGGSFQAVEQVKFLKKLFEKG
With B1 the “Avg Absorbance Background subtract” value [1] was 0.126, the “Avg Absorbance at 5 min” value [1] was 0.901 and the “PAA conc μM per disc” value [1] was 3.5 μM per disc. For the same molecule, the “Avg Absorbance 405 nm Background subtracted” value [2] was 1.830, the “retention on hydroxyapatite and enamel (in words)” value ([3]; 2-step process) was “poor retention on hydroxyapatite and enamel” and the “Whiteness Index 0 min” value ([3]; two-step: 10 μM enzyme 60 min, rinsed, then 40 mM triacetin, 100 mM H2O2, pH 7.2, before step 2) was −152.7. For the same molecule, the ΔWI ([3]; two-step, 0 to 60 min) was 56.6, the “Whiteness Index 5 min” value ([3]; two-step, 5 min in triacetin/H2O2) was −126.2 and the “Whiteness Index 15 min” value ([3]; two-step, 15 min in triacetin/H2O2) was −138.9. The “Whiteness Index 30 min” value ([3]; two-step, 30 min in triacetin/H2O2) was −144.8, the “Whiteness Index 45 min” value ([3]; two-step, 45 min in triacetin/H2O2) was −107.3 and the “Whiteness Index 60 min” value ([3]; two-step, 60 min in triacetin/H2O2) was −96.1.

B2: EZ-7: C277S-link1-DenP308-H6, SEQ ID NO: 429 (protein)
chain: MAFFDLPLEELKKYRPERYEEKDFDEFWEETLAESEKFPLDPVFERMESHLKTVEAYDVTFSGYRGQRIKGWLLVPKLEEEKLPCVVQYIGYNGGRGFPHDWLFWPSMGYICFVMDTRGQGSGWLKGDTPDYPEGPVDPQYPGFMTRGILDPRTYYYRRVFTDAVRAVEAAASFPQVDQERIVIAGGSQGGGIALAVSALSKKAKALLCDVPFLCHFRRAVQLVDTHPYAEITNFLKTHRDKEEIVFRTLSYFDGVNFAARAKIPALFSVGLMDNISPPSTVFAAYNYYAGPKEIRIYPYNNHEGGGSFQAVEQVKFLKKLFEKGGPGSGGAGSPGSAGGPGSTKPPRTPTANTSRPHHNFGSGGGGSPHHHHHH
With B2 the “Peracetic acid (ppm)” value [4] was 4453.7 ppm, the “Peracetic acid (ppm) Exposed to Hydroxyapatite, Disc” value ([5]; disc-bound enzyme, 100 mM triacetin, 100 mM H2O2, 30 min, 37° C.) was 2017 ppm and the “Peracetic acid (ppm) Exposed to Hydroxyapatite, Supernatant” value ([5]; unbound enzyme in supernatant after 10 μM enzyme on disc) was 4864 ppm. For the same molecule, the “PAA (ppm)” value [6] was 4877.2 ppm, the “Avg Absorbance Background subtract” value [1] was 1.450 and the “Avg Absorbance at 5 min” value [1] was 1.45. For the same molecule, the “PAA conc μM per disc” value [1] was 23.5 μM per disc, the “activity when bound to hydroxyapatite (in words)” value ([1]; with addition of triacetin and hydrogen peroxide) was “active enzymes when bound to hydroxyapatite” and the “Avg Absorbance 405 nm Background subtracted” value [2] was 1.619. The “Peracetic acid (ppm) In Solution” value [7] was 5471 ppm.
